Source: patent publication US20150165065A1 (AVIDBIOTICS, published 2015)
Residue numbers refer to the chain shown, from its start. Names may count otherwise.

B1: M13 phage pKK91 displaying MICA α3 domain with loop 3 insert His10sp (designed binder)
chain: TVPPMVNVTRSEASEGNITVTCRASGFYPWNITLSWRQDGVSLSHDTQQWGDVLPDGNGTYQTWVATRISGGSGGGSHHHHHHHHHHSGGSGGGCYMEHSGNHSTHPVPSGK
notes: also called 3-His10; not shown: C-terminal portion of M13 gene III protein, fused at codon position 198
B2: M13 phage pKK109 displaying MICA α3 domain with tight loop 1 insert T-3.3 (designed binder, not shown: large carriers)
chain: TVPPMVNRVPRGDSDLTCRASGFYPWNITLSWRQDGVSLSHDTQQWGDVLPDGNGTYQTWVATRICQGEEQRFTCYMEHSGNHSTHPVPSGK
B3: M13 phage pKK100 displaying MICA α3 domain with loop 1 insert 3.2sp (designed binder, not shown: large carriers)
chain: TVPPMVNVTSGGSGGGSTSRGDHPRTQSGGSGGGVTCRASGFYPWNITLSWRQDGVSLSHDTQQWGDVLPDGNGTYQTWVATRICQGEEQRFTCYMEHSGNHSTHPVPSGK
B4: WT α1-α2 domain soluble MICA protein (competitor and analyte) (ligand)
chain: EPHSLRYNLTVLSWDGSVQSGFLTEVHLDGQPFLRCDRQKCRAKPQGQWAEDVLGNKTWDRETRDLTGNGKDLRMTLAHIKDQKEGLHSLQEIRVCEIHEDNSTRSSQHFYYDGELFLSQNLETKEWTMPQSSRAQTLAMNVRNFLKEDAMKTKTHYHAMHADCLQELRRYLKSGVVLRRTVPPMVQVTRSEASGGSGDRVTITCRASQDVSTAVAWYQQKPGKAPKLLIYSASFLYSGVPSRFSGSGSGTDFTLTISSLQPEDFATYYCQQSYTTPPTFGQGTKVEIKGGSSRSSSSGGGGSGGGGEVQLVESGGGLVQPGGSLRLSCAASGFTFTSTGISWVRQAPGKGLEWVGRIYPTNGSTNYADSVKGRFTISADTSKNTAYLQMNSLRAEDTAVYYCARTYGIYDLYVDYTEYVMDYWGQGTLVTVSSGGSSRSSSSGGGGSGGGGDIQMTQSPSSLSASGGSGQITVTCRASGFYPWNITLSWRQDGVSLSHDTQQWGDVLPDGQGTYQTWVATRISQGEEQRFTCYMEHSGQHSTHPVPSGKGSHHHHHH
notes: also called wild-type (WT); WT MICA
B5: α1-α2 variant 17 (designed binder)
chain: B4 chain with G68L, N69W, K125L, K152E, K154D, H161R
notes: His-tagged protein from insect cells, modified α1-α2 domain with an attached polypeptide
B6: α1-α2 variant 15 (designed binder)
chain: B4 chain with N69W, K125N, K152E, K154D, H161R
notes: as for B5
B7: α1-α2 variant 18 (designed binder)
chain: B4 chain with S20P, G68L, N69W, K125L, K152E, K154D, H161R
notes: as for B5
B8: WED-MICA (WED-α1-α2 domain; N69W, K152E, K154D) (designed binder)
chain: B4 chain with N69W, K152E, K154D
notes: Whole entry as named
B9: α1-α2 variant 16 (designed binder)
chain: B4 chain with N69W, K125L, K152E, K154D, H161R
notes: as for B5
B10: M13 phage pKK112 displaying MICA α3 domain with tight loop 1 insert T-AMY (loop 1 from tendamistat) (designed binder, not shown: large carriers)
chain: TVPPMVNYQSWRYSQCRASGFYPWNITLSWRQDGVSLSHDTQQWGDVLPDGNGTYQTWVATRICQGEEQRFTCYMEHSGNHSTHPVPSGK
B11: M13 phage pKK95 displaying MICA α3 domain with loop 1 insert 3.4 (designed binder, not shown: large carriers)
chain: TVPPMVNVTRSARGDSDHRVTCRASGFYPWNITLSWRQDGVSLSHDTQQWGDVLPDGNGTYQTWVATRICQGEEQRFTCYMEHSGNHSTHPVPSGK
B12: soluble MICA generated from pKK35 (loop 3 insert His10sp) (designed binder)
chain: EPHSLRYNLTVLSWDGSVQSGFLTEVHLDGQPFLRCDRQKCRAKPQGQWAEDVLGNKTWDRETRDLTGNGKDLRMTLAHIKDQKEGLHSLQEIRVCEIHEDNSTRSSQHFYYDGELFLSQNLETKEWTMPQSSRAQTLAMNVRNFLKEDAMKTKTHYHAMHADCLQELRRYLKSGVVLRRTVPPMVNVTRSEASEGNITVTCRASGFYPWNITLSWRQDGVSLSHDTQQWGDVLPDGNGTYQTWVATRISGGSGGGSHHHHHHHHHHSGGSGGGCYMEHSGNHSTHPVPSGK

Key:
integrin αVβ3 [1] = target: T1, integrin αVβ3 (UniProt P06756 31-992; P05106 27-718); assay: phage ELISA, coated integrin, anti-M13-HRP
T1 construct: Coated on the ELISA plate

integrin αVβ5 [2] = target: T2, integrin αVβ5 (UniProt P06756 31-992; P18084 24-719); assay: phage ELISA, coated integrin, anti-M13-HRP
T2 construct: Coated on the ELISA plate
Procedure: The phage vectors were independently transformed into NEBαF′tet competent E. coli cells. Phages produced by the transformed cells were tittered and their concentrations adjusted by dilution to 10¹³ per ml. The ability of the soluble MICA molecules in each of the phage preparations was assayed by an ELISA using the intended target proteins, integrin αVβ3 or αVβ5, as capture agents on the ELISA plate. After the respective integrins were adhered to the bottoms of the wells of the ELISA plate, the wells were washed and blocked, as well known in the field. Each sample (100 μl) of phage preparation was added to wells containing αVβ3 or αVβ5, incubated and washed. The phages captured by the integrins were detected by HRP-conjugated antibody to the M13 phage coat developed with Ultra TMB-ELISA substrate and the optical densities read.

integrin αVβ5 [3] = target: T2, integrin αVβ5; assay: phage ELISA, coated integrin, anti-M13-HRP; remark: listed apart in the source
human NKG2D-Fc [4] = target: T3, human NKG2D-Fc (human, UniProt P26718 78-216, limits assumed); assay: competition ELISA, 2 nM human NKG2D-Fc on coated WT sMICA
T3 construct: construct not described; also called human NKG2D-Fc reagent; not shown: Fc part
T3 sequence (looked up): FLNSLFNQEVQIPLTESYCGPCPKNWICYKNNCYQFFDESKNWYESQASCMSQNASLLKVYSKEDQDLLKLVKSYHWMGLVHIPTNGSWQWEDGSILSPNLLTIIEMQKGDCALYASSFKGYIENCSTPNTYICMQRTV
From the text: (§1) As for the NKG2D ligands (NKG2DLs) in the above example, we attached polypeptides directly to each of these 4 modified α1-α2 NKG2DLs using a linker peptide. The 4 His-tagged proteins (SEQ ID NOs.: 131-134) were expressed in insect cells and purified to characterize their NKG2D binding affinities and kinetic binding parameters. Using a competitive binding ELISA, we determined the relative NKG2D binding affinities of the 4 modified α1-α2 variants.

biotinylated human NKG2D [5] = target: T4, biotinylated human NKG2D (human, UniProt P26718 78-216, limits assumed, biotinylated (site not stated)); assay: BLI (Octet), coated biotinylated human NKG2D, 100 nM analyte
T4 construct: Surface-coated in biolayer interferometry (Octet); also called recombinant biotinylated NKG2D
T4 sequence (looked up): T3 sequence (looked up)

biotinylated human NKG2D [6] = target: T4, biotinylated human NKG2D; assay: BLI (Octet), Kd = kOFF/kON
human NKG2D-Fc [7] = target: T3, human NKG2D-Fc; assay: competition ELISA, human NKG2D-Fc on coated WT sMICA
From the text: as §1

biotinylated human NKG2D [8] = target: T4, biotinylated human NKG2D; assay: BLI (Octet)
[9] = target: NKG2D receptor on NKL effector cells (human) (UniProt P26718); assay: cell-based or functional assay
mouse NKG2D-Fc = target: T5, mouse NKG2D-Fc (mouse, UniProt O54709 94-232, limits assumed); assay: competition ELISA: titrated soluble protein inhibits binding of mouse NKG2D-Fc to plate-coated MICA [panel B]
T5 construct: Construct not described; also called murine NKG2D-Fc; murine NKG2D; not shown: Fc part
T5 sequence (looked up): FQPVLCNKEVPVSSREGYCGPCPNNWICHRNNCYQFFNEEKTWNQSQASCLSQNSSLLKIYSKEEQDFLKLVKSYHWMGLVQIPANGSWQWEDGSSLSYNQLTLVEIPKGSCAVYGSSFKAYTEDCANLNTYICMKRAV
From the text: as §1

integrin αVβ5 [10] = target: T2, integrin αVβ5; assay: ELISA, coated integrin, anti-MICA-HRP
integrin αVβ3 [11] = target: T1, integrin αVβ3; assay: ELISA, coated integrin, anti-MICA-HRP

T2 sequence (P06756 31-992, chain 1 of 2): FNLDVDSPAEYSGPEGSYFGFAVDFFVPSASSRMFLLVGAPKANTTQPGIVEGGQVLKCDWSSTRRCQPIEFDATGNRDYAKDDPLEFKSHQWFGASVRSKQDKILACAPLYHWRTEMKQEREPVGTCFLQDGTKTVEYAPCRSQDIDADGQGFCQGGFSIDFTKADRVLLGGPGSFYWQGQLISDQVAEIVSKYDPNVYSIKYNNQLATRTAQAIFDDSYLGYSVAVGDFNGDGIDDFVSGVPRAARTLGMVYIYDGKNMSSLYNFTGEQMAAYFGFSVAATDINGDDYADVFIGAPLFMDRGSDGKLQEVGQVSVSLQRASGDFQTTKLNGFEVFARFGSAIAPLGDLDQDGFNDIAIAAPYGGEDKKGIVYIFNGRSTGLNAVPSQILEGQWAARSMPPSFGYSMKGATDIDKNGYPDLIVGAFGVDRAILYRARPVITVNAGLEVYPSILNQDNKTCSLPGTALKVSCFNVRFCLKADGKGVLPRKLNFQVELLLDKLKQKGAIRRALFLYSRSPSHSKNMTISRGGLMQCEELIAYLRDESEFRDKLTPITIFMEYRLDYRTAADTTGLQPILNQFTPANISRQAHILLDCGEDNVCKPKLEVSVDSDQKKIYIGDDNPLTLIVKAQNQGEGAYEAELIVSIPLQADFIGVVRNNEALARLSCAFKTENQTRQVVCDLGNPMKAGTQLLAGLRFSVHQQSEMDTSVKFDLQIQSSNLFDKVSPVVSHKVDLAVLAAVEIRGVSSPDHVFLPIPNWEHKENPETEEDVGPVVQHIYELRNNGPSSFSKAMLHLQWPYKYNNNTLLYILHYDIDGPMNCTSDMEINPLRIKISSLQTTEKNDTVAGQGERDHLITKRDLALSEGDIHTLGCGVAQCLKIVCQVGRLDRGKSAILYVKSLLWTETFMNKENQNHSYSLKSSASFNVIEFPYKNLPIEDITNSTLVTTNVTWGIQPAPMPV
T2 sequence (P18084 24-719, chain 2 of 2): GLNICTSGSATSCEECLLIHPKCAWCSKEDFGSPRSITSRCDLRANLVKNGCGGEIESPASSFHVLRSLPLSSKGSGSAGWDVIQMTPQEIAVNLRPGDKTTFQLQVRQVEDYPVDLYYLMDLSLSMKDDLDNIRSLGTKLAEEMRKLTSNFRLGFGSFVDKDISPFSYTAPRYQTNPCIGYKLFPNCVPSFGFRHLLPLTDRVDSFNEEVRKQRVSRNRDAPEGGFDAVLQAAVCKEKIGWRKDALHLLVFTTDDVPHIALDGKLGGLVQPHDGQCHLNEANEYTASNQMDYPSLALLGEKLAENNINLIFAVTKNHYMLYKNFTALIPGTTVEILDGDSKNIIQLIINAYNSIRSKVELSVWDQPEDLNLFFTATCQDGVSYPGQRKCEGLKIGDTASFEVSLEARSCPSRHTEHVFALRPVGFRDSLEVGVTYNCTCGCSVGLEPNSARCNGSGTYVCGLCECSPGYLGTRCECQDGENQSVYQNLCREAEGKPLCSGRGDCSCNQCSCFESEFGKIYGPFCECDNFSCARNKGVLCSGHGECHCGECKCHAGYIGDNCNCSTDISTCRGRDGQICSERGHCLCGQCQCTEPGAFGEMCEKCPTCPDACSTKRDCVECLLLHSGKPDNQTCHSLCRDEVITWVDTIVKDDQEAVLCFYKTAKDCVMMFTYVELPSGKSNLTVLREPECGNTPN
T1 sequence (P06756 31-992, chain 1 of 2): as the sequence (P06756 31-992, chain 1 of 2) above
T1 sequence (P05106 27-718, chain 2 of 2): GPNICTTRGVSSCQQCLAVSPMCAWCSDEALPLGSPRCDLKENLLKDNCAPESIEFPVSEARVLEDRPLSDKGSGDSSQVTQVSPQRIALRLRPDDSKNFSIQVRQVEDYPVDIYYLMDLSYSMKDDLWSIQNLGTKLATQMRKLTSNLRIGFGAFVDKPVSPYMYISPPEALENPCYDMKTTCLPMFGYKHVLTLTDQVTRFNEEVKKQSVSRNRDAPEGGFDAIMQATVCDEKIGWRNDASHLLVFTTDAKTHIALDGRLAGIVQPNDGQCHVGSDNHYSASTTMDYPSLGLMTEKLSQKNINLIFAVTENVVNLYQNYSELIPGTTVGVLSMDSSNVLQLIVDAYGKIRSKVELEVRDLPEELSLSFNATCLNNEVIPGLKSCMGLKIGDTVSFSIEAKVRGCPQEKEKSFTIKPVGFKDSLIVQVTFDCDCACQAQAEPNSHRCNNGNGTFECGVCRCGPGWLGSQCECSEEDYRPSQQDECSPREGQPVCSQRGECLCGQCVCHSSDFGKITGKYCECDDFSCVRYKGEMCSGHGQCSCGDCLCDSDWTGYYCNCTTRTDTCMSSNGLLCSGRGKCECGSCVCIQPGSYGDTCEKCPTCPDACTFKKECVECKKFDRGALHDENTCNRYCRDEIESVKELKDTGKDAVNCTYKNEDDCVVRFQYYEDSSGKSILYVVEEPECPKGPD

| Binder | αvβ3 signal (integrin αVβ3 [1]) | αvβ5 signal (integrin αVβ5 [3]) | IC50 (human NKG2D-Fc [4]) | koff (biotinylated human NKG2D [5]) | kon (biotinylated human NKG2D [5]) | Kd (biotinylated human NKG2D [6]) | fold better binding than WT NKG2DL (IC50) (human NKG2D-Fc [7]) | other results |
| --- | --- | --- | --- | --- | --- | --- | --- | --- |
| B1 | 0.303 OD | – | – | – | – | – | – | αvβ5 signal (integrin αVβ5 [2]): 0.078 OD |
| B2 | 0.23 OD | 0.167 OD | – | – | – | – | – | – |
| B3 | 0.201 OD | 0.186 OD | – | – | – | – | – | – |
| B4 | – | – | 19.4 nM | 0.0018 s⁻¹ | 130000 M⁻¹ s⁻¹ | 13.8 nM | – | – |
| B5 | – | – | 0.6 nM | 7e-05 s⁻¹ | 200000 M⁻¹ s⁻¹ | 0.4 nM | 32 fold | fold affinity increase relative to WT α1-α2 (biotinylated human NKG2D [8]): ~30 fold; fold reduction in the off-rate relative to WT (biotinylated human NKG2D [8]): 18 fold; NK-mediated lysis of FGFR3-expressing P815 cells (calcein release) [9]: 15 fold; IC50 (read off the curve) (mouse NKG2D-Fc): ~1 nM |
| B6 | – | – | 1.7 nM | 0.00011 s⁻¹ | 70000 M⁻¹ s⁻¹ | 1.5 nM | 11 fold | – |
| B7 | – | – | 0.5 nM | 9e-05 s⁻¹ | 230000 M⁻¹ s⁻¹ | 0.4 nM | 38 fold | fold affinity increase relative to WT α1-α2 (biotinylated human NKG2D [8]): ~30 fold; fold reduction in the off-rate relative to WT (biotinylated human NKG2D [8]): 18 fold; NK-mediated lysis of FGFR3-expressing P815 cells (calcein release) [9]: 15 fold; IC50 (read off the curve) (mouse NKG2D-Fc): ~1 nM |
| B8 | – | – | 4.4 nM | – | – | – | – | apparent koff (pooled screen) (biotinylated human NKG2D [5]): 0.0017 s⁻¹; apparent kon (pooled screen) (biotinylated human NKG2D [5]): 290000 M⁻¹ s⁻¹; apparent Kd (pooled screen) (biotinylated human NKG2D [6]): 5.9 nM |
| B9 | – | – | 0.7 nM | 9e-05 s⁻¹ | 200000 M⁻¹ s⁻¹ | 0.5 nM | 27 fold | fold affinity increase relative to WT α1-α2 (biotinylated human NKG2D [8]): ~30 fold; fold reduction in the off-rate relative to WT (biotinylated human NKG2D [8]): 18 fold; NK-mediated lysis of FGFR3-expressing P815 cells (calcein release) [9]: 15 fold |
| B10 | 0.46 OD | 0.515 OD | – | – | – | – | – | – |
| B11 | 0.345 OD | 0.232 OD | – | – | – | – | – | – |
| B12 | – | – | – | – | – | – | – | αvβ5 signal (integrin αVβ5 [10]): 0.392 OD; αvβ5 signal/ng (signal/ng MICA) (integrin αVβ5 [10]): 2.31; αvβ3 signal (integrin αVβ3 [11]): 0.419 OD; αvβ3 signal/ng (signal/ng MICA) (integrin αVβ3 [11]): 2.46 |
